Target: T1, fluorescent labelled Bid BH3 peptide (fluorescent label (Flu- or FAM-), position not stated)
T1 construct: BH3 peptide derived from the pro-apoptotic protein Bid; The methods name two probes (Flu-Bid with Mcl-1); the two probes may differ in label and limits; also called Flu-Bid; FAM-Bid
Experiment: fluorescence polarisation; direct binding of the fluorescent Bid probe to recombinant protein; Ex 485 nm, Em 530 nm, room temperature; buffer of the Kd determination not told apart from the two competitive assay buffers
Conditions: both partners purified

Row | Binder | Kd [nM]
1 | recombinant Bcl-xL protein (natural protein) MSQSNRELVVDFLSYKLSQKGYSWSQFSDVEENRTEAPEGTESEVKQALREAGDEFELRYRRAFSDLTSQLHITPGTAYQSFEQVVNELFRDGVNWGRIVAFFSFGGALCVESVDKEMQVLVSRIAAWMATYLNDHLEPWIQENGGWDTFVELYGNNAAAESRKGQERFN | 20 ± 2.3
2 | recombinant Mcl-1 protein (wild type) (natural protein) EDELYRQSLEIISRYLREQATGAKDTKPMGRSGATSRKALETLRRVGDGVQRNHETAFQGMLRKLDIKNEDDVKSLSRVMIHVFSDGVTNWGRIVTLISFGAFVAKHLKTINQESCIEPLAESITDVLVRTKRDWLVKQRGWDGFVEFFHVEDLEGG | 3 ± 0.1
